# Results taken from patent US20220048967A1 (published 2022).
# Residue numbers refer to the chain shown, from its start. Numbered stars: 1 amine (or outer) side, 2 acyl side, 3 side chain; on linkers, the order of the positions; unused ones are H or OH. Square brackets hold non-standard residues; d marks the D form. Side chains are listed from the residue outwards. Ends that are not written are not given here. * marks the point of attachment. C20 diacid = O=C(O)CCCCCCCCCCCCCCCCCCC(=O)*; γGlu = O=C(O)[C@H](CCC(=O)[*:2])N[*:1]; AEEA = NCCOCCOCC(=O)O; Aib = CC(C)(N)C(=O)O
# T1: human GIP receptor (human, UniProt P48546 22-466)
# T1 sequence (looked up): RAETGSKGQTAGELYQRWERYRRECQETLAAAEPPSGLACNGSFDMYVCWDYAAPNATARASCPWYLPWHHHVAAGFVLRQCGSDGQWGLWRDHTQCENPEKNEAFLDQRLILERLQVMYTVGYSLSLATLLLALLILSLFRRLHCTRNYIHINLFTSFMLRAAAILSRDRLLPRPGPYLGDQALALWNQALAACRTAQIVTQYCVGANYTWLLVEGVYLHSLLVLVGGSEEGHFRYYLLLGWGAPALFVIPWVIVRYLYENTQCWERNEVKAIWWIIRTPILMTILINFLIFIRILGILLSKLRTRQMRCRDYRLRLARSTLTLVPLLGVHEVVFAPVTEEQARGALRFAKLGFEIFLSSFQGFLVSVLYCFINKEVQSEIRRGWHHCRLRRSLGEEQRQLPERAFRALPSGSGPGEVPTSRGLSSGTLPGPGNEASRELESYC
# T2: human gastric inhibitory peptide receptor (GIPR) (human, UniProt P48546 22-466)
# T2 sequence (looked up): T1 sequence (looked up)
# B1: Example 25 (peptide)
# peptide: Y[Aib]EGTFTSDYSK([AEEA-AEEA-γGlu-C20 diacid])LLDKIAQ[Aib]AFIEYLIEGGPSSGAPPPS-NH2
# modifications: N-terminus assumed
# SMILES: CC[C@H](C)[C@H](NC(=O)[C@H](CCCCN)NC(=O)[C@H](CC(=O)O)NC(=O)[C@H](CC(C)C)NC(=O)[C@H](CC(C)C)NC(=O)[C@H](CCCCNC(=O)COCCOCCNC(=O)COCCOCCNC(=O)CC[C@H](NC(=O)CCCCCCCCCCCCCCCCCCC(=O)O)C(=O)O)NC(=O)[C@H](CO)NC(=O)[C@H](Cc1ccc(O)cc1)NC(=O)[C@H](CC(=O)O)NC(=O)[C@H](CO)NC(=O)[C@@H](NC(=O)[C@H](Cc1ccccc1)NC(=O)[C@@H](NC(=O)CNC(=O)[C@H](CCC(=O)O)NC(=O)C(C)(C)NC(=O)[C@@H](N)Cc1ccc(O)cc1)[C@@H](C)O)[C@@H](C)O)C(=O)N[C@@H](C)C(=O)N[C@@H](CCC(N)=O)C(=O)NC(C)(C)C(=O)N[C@@H](C)C(=O)N[C@@H](Cc1ccccc1)C(=O)N[C@H](C(=O)N[C@@H](CCC(=O)O)C(=O)N[C@@H](Cc1ccc(O)cc1)C(=O)N[C@@H](CC(C)C)C(=O)N[C@H](C(=O)N[C@@H](CCC(=O)O)C(=O)NCC(=O)NCC(=O)N1CCC[C@H]1C(=O)N[C@@H](CO)C(=O)N[C@@H](CO)C(=O)NCC(=O)N[C@@H](C)C(=O)N1CCC[C@H]1C(=O)N1CCC[C@H]1C(=O)N1CCC[C@H]1C(=O)N[C@@H](CO)C(N)=O)[C@@H](C)CC)[C@@H](C)CC
# B2: Example 3 (peptide)
# peptide: YXEGTXTSDYSIXLDXKAQXEFIXYLIEGGPSSGAPPPS
# modifications: Aib2; αMeF(2F)6; αMeL13; Orn16; K17((2-[2-(2-Amino-ethoxy)-ethoxy]-acetyl)2-(γ-Glu)-CO-(CH2)18-CO2H); Aib20; D-Glu24; C-terminal NH2
# B3: Example 23 (peptide)
# peptide: Y[Aib]EGTFTSDK([AEEA-AEEA-γGlu-C20 diacid])SILLDKIAQ[Aib]AFIEYLIEGGPSSGAPPPS-NH2
# modifications: N-terminus assumed
# SMILES: CC[C@H](C)[C@H](NC(=O)[C@H](CCCCN)NC(=O)[C@H](CC(=O)O)NC(=O)[C@H](CC(C)C)NC(=O)[C@H](CC(C)C)NC(=O)[C@@H](NC(=O)[C@H](CO)NC(=O)[C@H](CCCCNC(=O)COCCOCCNC(=O)COCCOCCNC(=O)CC[C@H](NC(=O)CCCCCCCCCCCCCCCCCCC(=O)O)C(=O)O)NC(=O)[C@H](CC(=O)O)NC(=O)[C@H](CO)NC(=O)[C@@H](NC(=O)[C@H](Cc1ccccc1)NC(=O)[C@@H](NC(=O)CNC(=O)[C@H](CCC(=O)O)NC(=O)C(C)(C)NC(=O)[C@@H](N)Cc1ccc(O)cc1)[C@@H](C)O)[C@@H](C)O)[C@@H](C)CC)C(=O)N[C@@H](C)C(=O)N[C@@H](CCC(N)=O)C(=O)NC(C)(C)C(=O)N[C@@H](C)C(=O)N[C@@H](Cc1ccccc1)C(=O)N[C@H](C(=O)N[C@@H](CCC(=O)O)C(=O)N[C@@H](Cc1ccc(O)cc1)C(=O)N[C@@H](CC(C)C)C(=O)N[C@H](C(=O)N[C@@H](CCC(=O)O)C(=O)NCC(=O)NCC(=O)N1CCC[C@H]1C(=O)N[C@@H](CO)C(=O)N[C@@H](CO)C(=O)NCC(=O)N[C@@H](C)C(=O)N1CCC[C@H]1C(=O)N1CCC[C@H]1C(=O)N1CCC[C@H]1C(=O)N[C@@H](CO)C(N)=O)[C@@H](C)CC)[C@@H](C)CC
# B4: Example 24 (peptide)
# peptide: Y[Aib]EGTFTSDYK([AEEA-AEEA-γGlu-C20 diacid])ILLDKIAQ[Aib]AFIEYLIEGGPSSGAPPPS-NH2
# modifications: N-terminus assumed
# SMILES: CC[C@H](C)[C@H](NC(=O)[C@H](CCCCN)NC(=O)[C@H](CC(=O)O)NC(=O)[C@H](CC(C)C)NC(=O)[C@H](CC(C)C)NC(=O)[C@@H](NC(=O)[C@H](CCCCNC(=O)COCCOCCNC(=O)COCCOCCNC(=O)CC[C@H](NC(=O)CCCCCCCCCCCCCCCCCCC(=O)O)C(=O)O)NC(=O)[C@H](Cc1ccc(O)cc1)NC(=O)[C@H](CC(=O)O)NC(=O)[C@H](CO)NC(=O)[C@@H](NC(=O)[C@H](Cc1ccccc1)NC(=O)[C@@H](NC(=O)CNC(=O)[C@H](CCC(=O)O)NC(=O)C(C)(C)NC(=O)[C@@H](N)Cc1ccc(O)cc1)[C@@H](C)O)[C@@H](C)O)[C@@H](C)CC)C(=O)N[C@@H](C)C(=O)N[C@@H](CCC(N)=O)C(=O)NC(C)(C)C(=O)N[C@@H](C)C(=O)N[C@@H](Cc1ccccc1)C(=O)N[C@H](C(=O)N[C@@H](CCC(=O)O)C(=O)N[C@@H](Cc1ccc(O)cc1)C(=O)N[C@@H](CC(C)C)C(=O)N[C@H](C(=O)N[C@@H](CCC(=O)O)C(=O)NCC(=O)NCC(=O)N1CCC[C@H]1C(=O)N[C@@H](CO)C(=O)N[C@@H](CO)C(=O)NCC(=O)N[C@@H](C)C(=O)N1CCC[C@H]1C(=O)N1CCC[C@H]1C(=O)N1CCC[C@H]1C(=O)N[C@@H](CO)C(N)=O)[C@@H](C)CC)[C@@H](C)CC
# B5: Example 356 (peptide)
# peptide: B2 peptide with Y1X, X6F, X16K, E21A
# modifications: D-Tyr1, Aib2, αMeL13, (2-[2-(2-Amino-ethoxy)-ethoxy]-acetyl)2-(γ-Glu)-CO-(CH2)18-CO2H on K17, Aib20, D-Glu24, C-terminal NH2
# B6: Example 358 (peptide)
# peptide: XXEGTFTSDYSIXLDXKAQXAFVEYLIAGGPSSGAPPPS
# modifications: D-Tyr1, Aib2, αMeL13, Orn16, (2-[2-(2-Amino-ethoxy)-ethoxy]-acetyl)2-(γ-Glu)-CO-(CH2)18-CO2H on K17, Aib20, C-terminal NH2
# B7: Example 357 (peptide)
# peptide: B6 peptide with V23I, E24X, A28E
# modifications: D-Tyr1, Aib2, αMeL13, Orn16, (2-[2-(2-Amino-ethoxy)-ethoxy]-acetyl)2-(γ-Glu)-CO-(CH2)18-CO2H on K17, Aib20, D-Glu24, C-terminal NH2
# B8: Example 87 (peptide)
# peptide: YXEGTFTSDYSILLDKKAQXAFIEYLIEGGPSSGAPPPS
# modifications: αMePro2; K17((2-[2-(2-Amino-ethoxy)-ethoxy]-acetyl)2-(γ-Glu)-CO-(CH2)18-CO2H); Aib20; C-terminal NH2
# B9: Example 114 (peptide)
# peptide: B8 peptide
# modifications: Aib2; K17((2-[2-(2-Amino-ethoxy)-ethoxy]-acetyl)-(ϵK)-(ϵK)-CO-(CH2)18-CO2H); Aib20; C-terminal NH2
# B10: Example 108 (peptide)
# peptide: B8 peptide
# modifications: Aib2; K17((2-[2-(2-Amino-ethoxy)-ethoxy]-acetyl)-AOC-(γ-Glu)-CO-(CH2)18-CO2H); Aib20; C-terminal NH2
# B11: Example 111 (peptide)
# peptide: B8 peptide
# modifications: Aib2; K17((2-[2-(2-Amino-ethoxy)-ethoxy]-acetyl)-(Trx)-(γ-Glu)-CO-(CH2)18-CO2H); Aib20; C-terminal NH2
# Biological target: T1, human GIP receptor
# Assay: cell-based or functional assay
Binder,hGIPR cAMP EC50 ratio,hGIPR cAMP Rel EC50 [nM]
B1,0.636,0.23
B2,–,0.0411
B3,0.754,0.204
B4,0.228,0.762

# Biological target: T2, human gastric inhibitory peptide …
# Assay: cell-based or functional assay
Binder,hGIPR cAMP EC50 ratio,hGIPR cAMP Rel EC50 [nM]
B5,0.364,0.386
B6,0.662,0.183
B7,0.366,0.384

# Biological target: human GLP-1 receptor (human, UniProt P43220 24-463)
# Assay: cell-based or functional assay
Binder,hGLP1R cAMP EC50 ratio,hGLP1R cAMP Rel EC50 [nM]
B1,0.197,0.356
B8,–,0.0801
B9,–,0.267
B10,–,0.294
B11,–,0.308
B3,0.342,0.19
B4,0.00416,13

# Biological target: human GLP-1 receptor (GLP-1R) (human, UniProt P43220 24-463)
# Assay: cell-based or functional assay
Binder,hGLP1R cAMP EC50 ratio,hGLP1R cAMP Rel EC50 [nM]
B5,0.0647,0.506
B6,0.26,0.117
B7,0.181,0.181
